For assay [1], the target named is SARS-CoV-2 RBD (residues 332-527), Lambda variant (SARS-CoV-2, Lambda (C.37), L452Q | F490S).
Assay [2] concerns the target SARS-CoV-2 RBD (residues 332-527), BQ.1.1 variant (SARS-CoV-2, Omicron BQ.1.1, R346T | K444T | N460K).

The source of these data is article doi:10.1101/2025.09.12.675771 (bioRxiv, 2025).

B1: R1-32-Q61E-WT (antibody, V domains shown)
VH: EVQLVQSGAEVKKPGSSVKVSCKASGGTFSSYFISWVRQAPGQGLEWMGGIIPILGIADYAEKFQGRVTITADKSTSTAYMELSSLRSEDTAVYYCARENGYSGYGAAYNFDLWGRGTLVTVSS
VL: QSVLTQPPSVSGAPGQRVTISCTGSDSNIGAGYDVHWYQQLPGTAPKLLIYGNSNRPSGVPDRFSGSKSGTSASLAITGLQAEDEADYYCQSYDSSLSGSVFGGGTKLTVL
Consider B1, for which the binding result in assay [1] and in assay [2] was “binds” in each case.
